Data as given in patent US20260207707A1 (UNIVERSITY OF CHICAGO, published 2026).

How the values were obtained:
[1] = target: T1, eosinophil cationic protein (ECP), P12724
T1 chain: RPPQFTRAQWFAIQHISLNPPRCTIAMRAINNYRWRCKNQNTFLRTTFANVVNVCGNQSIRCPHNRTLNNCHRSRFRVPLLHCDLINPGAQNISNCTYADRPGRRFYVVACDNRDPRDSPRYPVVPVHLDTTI

[2] = target: T2, recombinant human C-terminal CD95 (aa 212-335)
T2 chain: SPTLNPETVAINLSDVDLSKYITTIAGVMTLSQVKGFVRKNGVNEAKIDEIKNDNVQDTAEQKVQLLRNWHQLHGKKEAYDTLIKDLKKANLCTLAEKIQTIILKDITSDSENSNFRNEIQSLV

[3] = target: T3, recombinant human N-terminal CD95 (aa 1-173)
T3 chain: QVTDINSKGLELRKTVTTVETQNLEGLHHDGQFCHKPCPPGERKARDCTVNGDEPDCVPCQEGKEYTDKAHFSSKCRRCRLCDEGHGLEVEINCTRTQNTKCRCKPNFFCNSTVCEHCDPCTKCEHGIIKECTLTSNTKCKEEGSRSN

[4] = target: recombinant peptide corresponding to aa 214-231 of human CD95
[5] = target: recombinant peptide corresponding to aa 317-335 of human CD95
[6] = target: T4, neutrophil elastase (ELANE) (human, UniProt P08246 30-247, limits assumed); test: enzyme kinetics: ELANE (10 nM) chromogenic substrate activity with ECP 0-180 nM, curve fitting
T4 construct: Purified ELANE; In the co-immunoprecipitation it is the native protein in human PMN media; also called human ELANE
T4 sequence (looked up): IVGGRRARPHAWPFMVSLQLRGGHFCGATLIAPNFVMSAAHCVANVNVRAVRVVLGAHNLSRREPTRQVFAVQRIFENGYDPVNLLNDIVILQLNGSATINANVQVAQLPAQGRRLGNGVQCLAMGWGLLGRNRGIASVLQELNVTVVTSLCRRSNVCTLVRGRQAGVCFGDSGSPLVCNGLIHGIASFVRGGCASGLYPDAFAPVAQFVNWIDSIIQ
Experimental: Catalytic activity was measured using the chromogenic substrate N-Methoxysuccinyl-Ala-Ala-Pro-Val p-nitroanilide (Sigma, 100 μg/mL) according to manufacturer's protocol. Absorbance was measured at 405 nm using an accuSkan GO UV/Vis microplate spectrophotometer (ThermoFisher Scientific). […] Residual PMSF was eliminated with a PD-10 desalting column (GE Healthcare Life).

B1: neutrophil elastase (ELANE) (protein)
chain: IVGGRRARPHAWPFMVSLQLRGGHFCGATLIAPNFVMSAAHCVANVNVRAVRVVLGAHNLSRREPTRQVFAVQRIFENGYDPVNLLNDIVILQLNGSATINANVQVAQLPAQGRRLGNGVQCLAMGWGLLGRNRGIASVLQELNVTVVTSLCRRSNVCTLVRGRQAGVCFGDSGSPLVCNGLIHGIASFVRGGCASGLYPDAFAPVAQFVNWIDSIIQ
B1 was tested, and the “catalytic turnover (kcat) of ELANE” value [1] was “increases its catalytic turnover (kcat) by ~12-fold”, the “cleavage of recombinant protein (SDS-PAGE, Coomassie blue)” value [2] was “ELANE preferentially cleaved the C-terminal domain” and the “cleavage of recombinant protein (SDS-PAGE, Coomassie blue)” value [3] was “ELANE preferentially cleaved the C-terminal domain”. The “cleavage of peptide monitored by mass spectrometry” value [4] was “studies with synthetic peptides validated these findings” and the “cleavage of peptide monitored by mass spectrometry” value [5] was “studies with synthetic peptides validated these findings”.

B2: eosinophil cationic protein (ECP) (other, human, UniProt P12724 28-160, looked up)
chain: RPPQFTRAQWFAIQHISLNPPRCTIAMRAINNYRWRCKNQNTFLRTTFANVVNVCGNQSIRCPHNRTLNNCHRSRFRVPLLHCDLINPGAQNISNCTYADRPGRRFYVVACDNRDPRDSPRYPVVPVHLDTTI
notes: Identified by proteomics in media conditioned by human PMNs
B2 was tested, and the Kd [6] was 17 nM.
